Measured values from patent US20240218057A1 (ROCKEFELLER UNIVERSITY, published 2024).
Changes are numbered by the printed parent chain.

B1: C945 (antibody, V domains shown)
VH: QVQLVQSGAEVKKPGASVRISCKASGYTFTNYYMHWVRQAPGQGLEWMGIINPSGGSTTYAPKFQARVTMTRDTSTSTVYMELSSLRSDDTAVYYCARDYVLVPARSGMDVWGQGTTVTVS
VL: EIVLTQSPATLSLSPGERATLSCRASQSVSSYLAWYQQKPGQAPRLLIYDASNRATGIPARFSGSGSGTDFTLTISSLEPEDFAIYYCQQRSNWPYTFGQGTKLEIK
B2: C1041 (antibody, V domains shown)
VH: QVQLVQSGAEVKKPGASVKVSCKASGYTFSDHYIYWVRQAPGQGLEWMGIINPSAGSTSYAQKFQGRVTMTRDTSTSTVYMELSSLRSEDTAVYYCARDIVFVPATMAMDVWGLGTTVTVSS
VL: B1 VL with S31R, I85V, P95L, Y96F, Q100P, L104V, E105D
B3: C946 (antibody, V domains shown)
VH: QVQLVQSGAEVKKPGASVKVSCKASGYTFTNYYIHWVRQAPGQGLEWMGIINPDGDSTSYVQKFQGRVTMTRDTSTSTVYMELSSLRSEDTAVYYCARDLVFVPATSAMDVWGKGTTVTVSS
VL: B1 VL with I85V, P95L, Y96F, Q100P, L104V, E105D
B4: C1042 (antibody, V domains shown)
VH: B2 VH with A55G, R87K, A97S, L114Q
VL: B1 VL with S31R, I85V, P95L, Y96F, Q100P, L104V, E105D
B5: C951 (antibody, V domains shown)
VH: QVQLQESGPRLVKPSGTLSLTCAVSGGSISTTNWWSWVRQPPGKGLEWIGEIHHSGNTNYNPSLKSRVTISVDRSKNQFSLKLSSVTAADTAVYFCARDGGRPGDPFDIWGQGTMVTVSS
VL: QSALTQPASVSGSPGQSITISCTGTSSDVGGYNYVSWYQQHPGKAPNLMIYDVSDRPSGVSNRFSGSKSGNTASLTISGLQAEDEADYYCNSFTSNSTRVFGTGTKVTV
B6: C1026 (antibody, V domains shown)
VH: QVQLVESGGGVVQPGKSLRLSCAASGFIFSSYSMHWVRQAPGKGLEWVAVVSNDGSGKFYADSVRGRFTIFRDNSKNTLYLQVSSLRAEDTAVYYCARDALTSISVLFDCWGQGTLVTVSS
VL: DIQMTQSPSSLSASLGDRVTITCRASQSISNYLNWYQQKPGKAPKLLIYGASSLQSGVPSRFSGSGSGTDFTLTISNLQPEDFATYFCQQSYSTPSVTFGGGTKVEIK
B7: C1029 (antibody, V domains shown)
VH: QVQLVESGGGVVQPGRSLRLSCAASGFTFSSFGMHWVRQAPGKGLEWVAVISYDGSYKDYGDSVKGRFTISRDNSKNTLYLQMNSLRAEDTAVYYCARDSNVDTVMVTWFDYWGRGTLVTVSS
VL: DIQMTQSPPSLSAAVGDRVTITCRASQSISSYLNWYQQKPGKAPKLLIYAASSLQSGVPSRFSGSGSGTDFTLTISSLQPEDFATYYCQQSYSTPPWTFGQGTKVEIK
B8: C948 (antibody, V domains shown)
VH: EVQLVESGGGLVQPGGSLRLSCAASGFTFSRYDMHWVRQATGKGLEWVSIIGTAGDTYYPGSVKGRFTISRDNAKNSLFLQMNSLRAGDTAVYYCARANYDSSGYHNWFDPWGQGTLVTVSS
VL: DIQMTQSPSSLSASIGDRVTITCRASQNINSYLNWYQQKPGKAPKLLIYAASSLQSGVPSRFSGSGSGTDFTLTINSLQPEDFATYYCQQSYSMPSWTFGQGTKVEI
B9: C943 (antibody, V domains shown)
VH: QVQLVESGGGVVQPGRSLRLSCAASGFPFSSFGMHWVRQAPGRGLEWVALILYDGDNKYYADSVKGRFTISRDNSKNTLYLQMNSLRAEDTAVYYCAKDIGGGSSPPFFDYWGQGTLVTVSS
VL: SYELTQAPSVSLAPGKTARITCGENNIGSKSVHWYQQKPGQAPVLVIYYDSDRPSGIPERFSGSNSGNTATLTISRVEAGDEADYYCQVWDSSSDHVMFGGGTKLTVL
B10: C1030 (antibody, V domains shown)
VH: EVQLVESGGGLVQPGGSLRLSCEASGVIVSSNYMNWVRQAPGKGPEWVSVLYAGGSTFYADSVKGRFTISRDDSKNTLFLQMNNLRAEDTAVYFCARDLIAFGMDVWGQGTTVTVSS
VL: DIQLTQSPSFLSASVGDRVTITCRASQGINSDLAWYQQKPGKAPKLLIYGASTLQSGVPSRFSGSGSGTEFSLTVSSLQPEDFATYYCQQLNSYRRFGGGTKVEIK
B11: C949 (antibody, V domains shown)
VH: QVQLQESGPGLVKPLQTLSLTCTVSGGSISNGDYYWSWIRQSPGKGLEWIGNIFYSGATYFNPSLKSRVTLSVDTSKNQFSLKLSSVTAADTAVYYCARVVRVLPAASVDCWGQGTLVTVSS
VL: QSALTQPRSVSGSPGQSVPISCTGTSSDVGGYDYVSWYQQHPGKAPKLIIYDVSERPSGVPDRFSGSKSGNTASLTISGLQAEDEATYYCCSYAGTSVMFGGGTKLTVL
B12: C941 (antibody, V domains shown)
VH: QVQLVQSGAEVKKPGSSVKVSCKASGGTSRSYPISWVRQAPGQGLEWMGRIIPIVGTANYAQRFQGRVTITADESTGTAYMELSSLRSEDTAVYYCARNRGYSDYGSVYYFDYWGQGTLVTVSS
VL: QSVLTQPPSVSGAPGQRVTISCTGSSSNIGAGYDVHWYQQLPGAAPKLLIYRNINRPSGVPDRFSGSKSGTSASLAITGLQADDEADYYCQSYDSSLSGSVFGGGTKLTV
B13: C940 (antibody, V domains shown)
VH: QVQLQESGSGLVKPSQTLSLTCAVSGGSASSGGYSWSWIRQPPGKGLEWIGYIYHSGSTYYNPSLKSRVTISLDRTKKQFSLKLSSVTAADTAVYYCARFCLSGSHYLFAFDIWGPGTMVTVSS
VL: QSALTQPASVSGSPGQSITISCTATSSDVGGYNFVSWYQQYPGKVPKLLIYDVGNRPSGVSNRFSGSKSGNTASLTISGLQAEDEADYYCSSYTNSSTFFGGGTKLTVL
B14: C944 (antibody, V domains shown)
VH: QVQLVESGGGVVQPGRSLRLSCAASGFTFSSYGMHWVRQAPGKGLEWVAVISYDGSYKYYADSVKGRFTISRDNSKNTLYLQMNSLRAEDTAVYYCAKGSGSQLYYYYGMDVWGQGTTVTVSS
VL: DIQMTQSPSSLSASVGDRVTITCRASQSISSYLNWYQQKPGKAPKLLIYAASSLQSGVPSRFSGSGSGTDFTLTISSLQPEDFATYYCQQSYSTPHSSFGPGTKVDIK
B15: C942 (antibody, V domains shown)
VH: QVQLVESGGGVVQPGRSLRLSCAASGFTFSSYVMHWVRQAPGKGLEWVAIISSDGNTKYYADSVKGRFTISRDNSKNTLYLQMNSVRTDDTAVYYCARDGTTMTPTDLLTDWGQGTLVTVSS
VL: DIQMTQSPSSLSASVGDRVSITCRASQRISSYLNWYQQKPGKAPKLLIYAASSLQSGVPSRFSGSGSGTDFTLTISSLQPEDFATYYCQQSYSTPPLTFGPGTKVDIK
B16: C1027 (antibody, V domains shown)
VH: EVQLVESGGGLVQPGGSLRLSCAASGFIVTTNYMSWVRQAPGKGLEWVSLIYPGGSTFYADSVEGRFTISRDNSKNTLYLQVNSLRVEDTAVYYCARDTFGRGDDHWGQGTLVTVSS
VL: DIQMTQSPSSLSASVGDRVTITCQASQDINIYLNWYQQRPGKAPKLLIYDASNLQTGVPSRFSGSGSGTDFTITISSLQPEDIATYYCQQYDNLPRSFGQGTKLEI
B17: C939 (antibody, V domains shown)
VH: QVQLVESGGGVVQPGRSLRLSCAASGFTFSSYAMHWVRQAPGKGLESVALISHDGSNKYHADSVKGRLTISRDTSKNTLYLQMDSLRPEDTAVYYCASGLLWFETAGGSGAPDYGMAVWGQGTTVTVSS
VL: DIQMTQSPSSLSASVGDRVTITCRASQSISTYLNWYQQKPGRAPKFLIYAASSLQSGVPSRFSGSGSGTDFTLIISGLQPEDFATYFCQQSYNTPLTFGGGTKVEIK
B18: C1025 (antibody, V domains shown)
VH: EVQLVESGGGLVQPGRSLRLSCAASGFTFDDYAMHWVRQVPGKGLEWVSGVSWNGDSVGYADSMEGRFTISRDNAKNSLYLQMNSLRTEDTALYYCAKGVDYSSSSNFDFWGQGTLVTVSS
VL: DIQMTQSPSSVSASVGDRVTITCRASQGISSWLAWYQQKPGKAPKLLISLASSLQSGVPSRFSGSGSETDFTLIISSLQPEDFATYYCQQSSSFPLTFGGGTKVEIK
B19: C1033 (antibody, V domains shown)
VH: QVQLVQSGAEVKKPGSSVKVSCKASGGTFSRNVISWVRQAPGQGLEWMGGIIPMFGTANYAQKFQGRVTISADESTSTAYMELSSLRSEDTAVYYCAREDFILESAPIRENSYYYYGMDVWGQGTTVTVSS
VL: EIVLTQSPGTLSLSPGERATLSCRASQSVSSNYLAWYQQKPGQAPRLLIYDASSRATGIPDRFSGSGSGTDFTLTIRRLEPEDFAVYYCQQYGGSPRTFGQGTKVEIK
B20: C947 (antibody, V domains shown)
VH: QVQLQESGPGLVRPSGTLSLTCAVTGGSISSSDCWSWVRQPPGKGLEWIGEICHGRTSNYNPSLKSPVSISVDKSKNQFSLILSSVTAADKAVYYCARSSRFLPPLPDAFDLWGQGTMVTVSS
VL: QSVLTQPPSVSGAPGQRVTISCTGSSSNIGAGYDVHWYKQLPGTAPKLLIYGNTNRPSGVPGRFSGSKSGTSASLAITGLQAEDEADYFCQSYDTRLSVVFGGGTKLT
B21: C1028 (antibody, V domains shown)
VH: QVQLVESGGGVVQPGRSLRLSCADSGFTFSSSGMHWVRQAPGKGLEWVGVISYDGGNKYYADSVKGRFTISRDNSKNTLYLQMNSLRAEDTAVYYCAKDTPGGDDIMTGWGLYGMDVWGQGTTVTVSS
VL: DIQMTQSPSSLSASVEDRVTITCRASQSISSYLNWYQQKPGKAPKLLIYAAISLQSGVPSRFSGSGSGTEFTLTISSLQPEDFATYYCQQSYTTPWAFGQGTKVEIK
B22: C1034 (antibody, V domains shown)
VH: QLQLQESGPGLVKPSETLSLTCTVSGGSVSSNNHYWGWIRQPPGKGLEWIGSISSSGSTHHNPSLRSRVTISVDTSKNHFSLKLNSVTATDTAVYYCARVDSSGWYTGDVFDVWGQGTMVTVSS
VL: DIQMTQSPSSLSASVGDRVTITCRASQTINNYLNWYQQKPGKPPKLLIYAAFSLHSGVPSRFSGSRSGTDFTLTISSLQPEDFATYYCQHSYSTMCSFGQGTKLEIK
B23: C1032 (antibody, V domains shown)
VH: EVQLVESGGSLVKPGGSLRLSCVASGLTFNHAWMSWVRQAPGKGLEWVGRIKSKIDGGTTDYAAPVKGRFTISRDDSKSTQYLQMNSLKTEDTAVYYCTTDCFWRLGGTTCYEHDAFDVWGQGTMVTVS
VL: DIQMTQSPSSLSASVGDRVTITCRASQAIATFLNWYQQKPGKAPKLLIYAASSLQSGVPSRFSGSGSGTDFTLTISSLQPEDFATYYCQQSYNSLHFGGGTKVEIK
B24: C1031 (antibody, V domains shown)
VH: QLQLQESGPGLVKPSETLSLTCTVSGGSINTSTYYWGWIRQPPGKGLEWIGNIYYSGITYYNPSLKSRVTISVDTSKNQFSLKLRSVTAADTAVYYCARQHRFGSGSSELLWGQGTLVTVSS
VL: QSALTQPPSASGSPGQSVTISCTGTSSDVGSYNYVSWYQQHPGKAPKLMIYEVTKRPSGVPDRFSGSKSGNTASLTVSGLQADDEADYYCSSYAGSSNLVFGGGTKLTV

The binders below were run against T1, SARS-COV-2 RBD (SARS-COV-2, UniProt P0DTC2 319-539) (assay: ELISA, RBD coated on plate).
T1 construct: also called WT RBD
In the case of B1, the EC50 is reported as 3.13 ng/mL. For B2, the EC50 was 3.65 ng/mL. Work on B3 yielded an EC50 of 3.82 ng/mL. Work on B4 yielded an EC50 of 4.55 ng/mL. Work on B5 yielded an EC50 of 0.81 ng/mL. Binder B6 has an EC50 of 2.5 ng/mL. With B7 the EC50 was 2.86 ng/mL. In the case of B8, the EC50 is reported as 3.26 ng/mL. Work on B9 yielded an EC50 of 2.59 ng/mL. B10 showed an EC50 of 2.78 ng/mL. B11 was tested, and the EC50 was 2.33 ng/mL. Work on B12 yielded an EC50 of 0.88 ng/mL. For B13, the EC50 was 1.8 ng/mL. B14 was tested, and the EC50 was 1.71 ng/mL. Work on B15 yielded an EC50 of 1.35 ng/mL. In the case of B16, the EC50 is reported as 2.42 ng/mL. In the case of B17, the EC50 is reported as 3.62 ng/mL. With B18 the EC50 was 2.51 ng/mL. Binder B19 has an EC50 of 3.63 ng/mL. With B20 the EC50 was 2.08 ng/mL. Work on B21 yielded an EC50 of 3.58 ng/mL. Work on B22 yielded an EC50 of 2.77 ng/mL. Binder B23 has an EC50 of 2.89 ng/mL. In the case of B24, the EC50 is reported as 7.23 ng/mL.
